The source of these data is US20240400689A1.

Assay [1] deals with human CD276 protein (human) (UniProt Q5ZPR3). The assay is described as follows: FACS on SKOV3 cells.
For assay [2] the target is unchanged. The assay is described as follows: cell-based or functional assay.

Several values for one entry are separate records, joined by “and”; a condition that tells them apart may be missing. Identical values can stand only once.

human CD276 protein (human), sequence (Q5ZPR3 29-534): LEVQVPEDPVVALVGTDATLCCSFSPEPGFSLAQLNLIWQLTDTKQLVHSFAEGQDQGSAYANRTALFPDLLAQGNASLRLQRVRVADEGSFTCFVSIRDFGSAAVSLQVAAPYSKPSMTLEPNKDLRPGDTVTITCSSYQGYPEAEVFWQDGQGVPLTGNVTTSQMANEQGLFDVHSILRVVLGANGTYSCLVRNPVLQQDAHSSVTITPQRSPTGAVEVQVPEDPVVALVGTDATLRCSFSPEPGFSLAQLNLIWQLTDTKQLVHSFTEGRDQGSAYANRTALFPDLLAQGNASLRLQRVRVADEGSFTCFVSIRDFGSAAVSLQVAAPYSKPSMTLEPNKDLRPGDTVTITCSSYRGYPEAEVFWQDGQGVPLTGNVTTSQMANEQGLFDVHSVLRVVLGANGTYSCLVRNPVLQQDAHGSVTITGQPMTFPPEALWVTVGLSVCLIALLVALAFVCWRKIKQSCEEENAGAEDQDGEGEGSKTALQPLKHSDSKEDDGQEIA

Regarding igG (antibody), in assay [1], the MFI (Max) worked out at 115.

For MGA271-WT Fc (antibody), in assay [2], the EC50 of antibody induced CDC effect was 8.91 nM and 9.64 nM; the Top cytotoxicity (%), CDC was 19.6% and 19.8%.
